We go through two proteins from paper PMC5712522 (Nature Communications, 2017).

This data set concerns the molecule itself. The experiment in a line: SEC-MALS; Shodex KW404-4F column; 50 μg of protein; PBS pH 7.2.

Where a chain is given by its changes, count along the chain named. In names and notes the source's numbering stands.

B1: LIMP-2 luminal domain H150A (domain or fragment, UniProt Q14108 28-431, looked up)
chain: VFQKAVDQSIEKKIVLRNGTEAFDSWEKPPLPVYTQFYFFNVTNPEEILRGETPRVEEVGPYTYRELRNKANIQFGDNGTTISAVSNKAYVFERDQSVGDPKIDLIRTLNIPVLTVIEWSQVAFLREIIEAMLKAYQQKLFVTHTVDELLWGYKDEILSLIHVFRPDISPYFGLFYEKNGTNDGDYVFLTGEDSYLNFTKIVEWNGKTSLDWWITDKCNMINGTDGDSFHPLITKDEVLYVFPSDFCRSVYITFSDYESVQGLPAFRYKVPAEILANTSDNAGFCIPEGNCLGSGVLNVSICKNGAPIIMSFPHFYQADERFVSAIEGMHPNQEDHETFVDINPLTGIILKAAKRFQINIYVKKLDDFVETGDIRTMVFPVMYLNESVHIDKETASRLKSMINT
notes: LIMP-2 (SCARB2), soluble luminal domain, residues 28–431, with H150A; also called dimerization-deficient mutant; source: Expi293F (HEK), purified in the same manner as the wild-type protein
Regarding B1, the binding result is listed as “binds”.

B2: LIMP-2 luminal domain H150A/F151D (domain or fragment, UniProt Q14108 28-431, looked up)
chain: B1 chain with F124D
notes: LIMP-2 (SCARB2), soluble luminal domain, residues 28–431, with H150A and F151D; also called dimerization-deficient mutant; source: Expi293F (HEK), purified in the same manner as the wild-type protein
As for B2, the binding result was “binds”.
